# Test results taken from patent publication US20240053325A1, “NOVEL SCREENING PLATFORM TO IDENTIFY IMMUNE MODULATORY AGENTS” (PRESIDENT AND FELLOWS OF HARVARD COLLEGE, priority 2020, published 2024).
# What was measured:
# [1] = molecular target: T1, IL-17RA/RC (Mus musculus, UniProt Q60943+Q8K4C2); test: IL-17RA/RC reporter assay (GFP reporter cells); format: cell-based; settings: reporter cells incubated with different amounts for 24 hours
# T1 construct: expressed in transfected cells
# [2] = molecular target: T2, IL-17RA/RC (Mus musculus, UniProt Q60943+Q8K4C2, F156E); test: IL-17RA/RC reporter assay (GFP reporter cells); format: cell-based; settings: 24 h stimulation, IL-17A-F 100 ng/ml; for increase of percentage of GFP+ cells / GFP expression (reporter response): TNFa 5 ng/ml
# T2 construct: expressed in transfected cells
# [3] = molecular target: IL-17RA/RC reporter (IL-17RA-tTA and IL-17RC-TEV co-expressed in reporter cells) (Mus musculus); test: cell-based or functional assay
# [4] = molecular target: T3, IL-10R (Mus musculus, UniProt Q61190+Q61727, C4S); test: IL-10 reporter; format: cell-based; settings: incubated for 24 hours with different amounts
# T3 construct: expressed in transfected cells
# Procedure: (§1) IL-10/IFN-γ/TNF-α reporters were incubated for 24 hours with different amounts of IL-10 (FIGS. 5A and 5B), IFN-γ (FIGS. 5C and 5D) or TNF-α (FIGS. 5E and 5F).
# (§2) Furthermore, the systems and methods provided herein are applied to generate other cytokine/cytokine receptor reporter system (tTA fused onto one receptor subunit via a protease cleavage site, TEV fused to another receptor subunit, optimal linkers inserted between different proteins to ensure high signal-to-background ratio). The screening platform provided herein are used to identify immune modulatory agents including, but not limited to, small molecules and proteins that modulate cytokine signaling (FIGS. 5A-6F).
# [5] = molecular target: T4, TNFαR1 (Homo sapiens, UniProt P19438); test: TNF-α reporter; format: cell-based; settings: incubated for 24 hours with different amounts
# T4 construct: expressed in transfected cells
# Procedure: as §1, §2
# [6] = molecular target: T5, IL-17RA/RB (Mus musculus, UniProt Q60943+Q9JIP3); test: IL-17RA/RB reporter assay (GFP reporter cells); format: cell-based; settings: 24 h stimulation, IL-17A-F 100 ng/ml; for increase of percentage of GFP+ cells / GFP expression (reporter response): TNFa 5 ng/ml
# T5 construct: expressed in transfected cells
# Procedure: Doxycycline was used as a negative regulator of the GFP reporter. IL-17A-F: 100 ng/ml, TNFa: 5 ng/ml, doxycycline: 1 μg/ml.
# Using a similar approach, the inventors have recently also successfully generated the IL-17RA/IL-17RB reporter line (FIG. 4). […] Since IL-17E plays a role in allergy and asthma, small molecules modulators that will be identified using this platform may create a new IP opportunity.
# [7] = molecular target: IL-17RA/RB reporter (IL-17RA-tTA and IL-17RB-TEV co-expressed in reporter cells) (Mus musculus); test: cell-based or functional assay
# [8] = molecular target: T6, IFNγR (Mus musculus, UniProt P15261+Q63953); test: IFN-γ reporter; format: cell-based; settings: incubated for 24 hours with different amounts
# T6 construct: expressed in transfected cells
# Procedure: as §1, §2
molecule,measurement,setting,value
IL-17A: IL-17 family cytokine; ligand of the IL-17RA/IL-17RC heterodimer,dose-dependent activation of the GFP reporter,[1],activate the GFP reporter system in a dose-dependent manner
same,dose-dependent activation of the GFP reporter,[1]; listed as IL-17a,activated in a dose-dependent manner
same,increase of percentage of GFP+ cells / GFP expression (reporter response),[2],responds highly selectively
same,percentage of GFP+ cells,[2]; increased from 1%,60%
IL-17A (ligand),"percentage of GFP^+ cells (24 h stimulation, 100 ng/ml)",[3],60%
"IL-10: cytokine, used to activate the IL-10 reporter",dose dependent activation of reporter,[4],dose dependent activation
TNFa,dose dependent activation of reporter,[5],dose dependent activation
same,increase of percentage of GFP+ cells / GFP expression (reporter response),[6],failed to increase GFP expression
same,increase of percentage of GFP+ cells / GFP expression (reporter response),[2],failed to increase GFP expression
IL-17F: IL-17 family cytokine,dose-dependent activation of the GFP reporter,[1],activate the GFP reporter system in a dose-dependent manner
same,dose-dependent activation of the GFP reporter,[1]; listed as IL-17f,to a lesser degree
IL-17E (ligand),"percentage of GFP^+ cells (24 h stimulation, 100 ng/ml)",[7],80%
"IFN-γ: dimerized soluble cytokine (interferon) that activates interferon gamma receptors (protein, listed as Homo sapiens) MKYTSYILAFQLCIVLGSLGCYCQDPYVKEAENLKKYFNAGHSDVADNGTLFLGILKNWKEESDRKIMQSQIVSFYFKLFKNFKDDQSIQKSVETIKEDMNVKFFNSNKKKRDDFEKLTNYSVTDLNVQRKAIHELIQVMAELSPAAKTGKRKRSQMLFRGRRASQ",dose dependent activation of reporter,[8],dose dependent activation
"IL-17C: IL-17 family cytokine (protein, UniProt Q9P0M4 19-197, looked up) Interleukin-17C: HHDPSLRGHPHSHGTPHCYSAEELPLGQAPPHLLARGAKWGQALPVALVSSLEAASHRGRHERPSATTQCPVLRPEEVLEADTHQRSISPWRYRVDTDEDRYPQKLAFAECLCRGCIDARTGRETAALNSVRLLQSLLVLRRRPCSRDGSGLPTPGAFAFHTEFIHVPVGCTCVLPRSV",dose-dependent activation of the GFP reporter,[1],not
"IL-17E: IL-17 family cytokine; the natural ligand of IL-17RA/RB (protein, UniProt Q9H293 33-177, looked up) Interleukin-25: YSHWPSCCPSKGQDTSEELLRWSTVPVPPLEPARPNRHPESCRASEDGPLNSRAISPWRYELDRDLNRLPQDLYHARCLCPHCVSLQTGSHMDPRGNSELLYHNQTVFYRRPCHGEKGTHKGYCLERRLYRVSLACVCVRPRVMG",increase of percentage of GFP+ cells / GFP expression (reporter response),[6],responds highly
same,percentage of GFP+ cells,[6]; increased from 1%,80%
